The results in this text go back to the supplement of paper PMC9112550, “Optimization of the antimicrobial peptide Bac7 by deep mutational scanning” (BMC Biology, 2022).

The data set has as its system Escherichia coli TOP10. In words: shrunken log2 fold change of peptide-encoding DNA abundance (4.5 h post-induction vs induction); higher = less antimicrobial activity (less host growth inhibition). As to conditions: time post-induction: 4.5 h; library: site-saturation at positions 5, 18, 19, 20.
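Further: peptides expressed intracellularly from a pBAD plasmid library in pooled LB shake-flask culture, induced with 0.3% L-arabinose, DNA abundance read by NGS, three biological replicates, DESeq2 with apeglm shrinkage.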

For RRIRHRPPRLPRPRPRPIREPRP, the “shrunken log2 fold change” value is -0.00145.

As for RRIRYRPPRLPRPRPRPMCPPRP, the “shrunken log2 fold change” value was -0.217.

RRIRFRPPRLPRPRPRPFLMPRP: the “shrunken log2 fold change” value is -0.263.

As for RRIRYRPPRLPRPRPRPFMCPRP, the “shrunken log2 fold change” value is -0.233.

Turning to RRIRLRPPRLPRPRPRPMFQPRP, the “shrunken log2 fold change” value was -1.11.

With RRIRFRPPRLPRPRPRPHSLPRP, the “shrunken log2 fold change” value was -0.169.

RRIRLRPPRLPRPRPRPGRIPRP: the “shrunken log2 fold change” value is -0.136.

For RRIRPRPPRLPRPRPRPFGFPRP, the “shrunken log2 fold change” value was 0.0716.

RRIRERPPRLPRPRPRPPMMPRP: the “shrunken log2 fold change” value is -0.0743.

On to RRIRSRPPRLPRPRPRPIFFPRP, for which the “shrunken log2 fold change” value came out at 0.124.

For the sequence RRIRIRPPRLPRPRPRPDEIPRP, the “shrunken log2 fold change” value came to 0.1.

In the case of RRIRMRPPRLPRPRPRPLESPRP, the “shrunken log2 fold change” value was 2.66.

In the case of RRIRARPPRLPRPRPRPIYRPRP, the “shrunken log2 fold change” value was -0.0972.

For the sequence RRIRMRPPRLPRPRPRPHNHPRP, the “shrunken log2 fold change” value was -0.239.

As for RRIRDRPPRLPRPRPRPGNIPRP, the “shrunken log2 fold change” value is -0.0319.

As to RRIRIRPPRLPRPRPRPPGPPRP, the “shrunken log2 fold change” value amounted to 0.575.

For RRIRKRPPRLPRPRPRPQCPPRP, the “shrunken log2 fold change” value is -0.000549.

For the sequence RRIRQRPPRLPRPRPRPDDQPRP, the “shrunken log2 fold change” value was 0.164.

Regarding RRIRGRPPRLPRPRPRPTPLPRP, the “shrunken log2 fold change” value turned out to be 0.747.

Regarding RRIRPRPPRLPRPRPRPLENPRP, the “shrunken log2 fold change” value was -0.00388.

Regarding RRIRTRPPRLPRPRPRPQFNPRP, the “shrunken log2 fold change” value is -0.226.

For the sequence RRIRARPPRLPRPRPRPGPAPRP, the “shrunken log2 fold change” value stood at 0.873.

For the sequence RRIRCRPPRLPRPRPRPKNGPRP, the “shrunken log2 fold change” value was found to be 0.0379.

RRIRVRPPRLPRPRPRPTFVPRP: the “shrunken log2 fold change” value turned out to be 0.0147.

Turning to RRIRKRPPRLPRPRPRPDFSPRP, the “shrunken log2 fold change” value is 0.0114.

As for RRIRSRPPRLPRPRPRPDPFPRP, the “shrunken log2 fold change” value was -0.214.

On to RRIRVRPPRLPRPRPRPWSDPRP, for which the “shrunken log2 fold change” value was -0.138.

For the sequence RRIRIRPPRLPRPRPRPPQKPRP, the “shrunken log2 fold change” value came out at 0.0534.

As to RRIRVRPPRLPRPRPRPIMEPRP, the “shrunken log2 fold change” value turned out to be 0.0384.

RRIRARPPRLPRPRPRPYDIPRP: the “shrunken log2 fold change” value was found to be 0.00126.

Consider RRIRLRPPRLPRPRPRPTCIPRP, for which the “shrunken log2 fold change” value was -0.123.

With RRIRCRPPRLPRPRPRPSHYPRP, the “shrunken log2 fold change” value was -0.349.

For RRIRMRPPRLPRPRPRPAINPRP, the “shrunken log2 fold change” value was 0.321.

Turning to RRIRARPPRLPRPRPRPCAKPRP, the “shrunken log2 fold change” value came out at 0.984.

Turning to RRIRDRPPRLPRPRPRPMFVPRP, the “shrunken log2 fold change” value is -0.0355.

Consider RRIRNRPPRLPRPRPRPCLYPRP, for which the “shrunken log2 fold change” value worked out at 0.0767.

As to RRIRKRPPRLPRPRPRPVRIPRP, the “shrunken log2 fold change” value was found to be 0.494.

In the case of RRIRGRPPRLPRPRPRPDWGPRP, the “shrunken log2 fold change” value stood at 0.242.

In the case of RRIRKRPPRLPRPRPRPYHIPRP, the “shrunken log2 fold change” value is -0.323.

Turning to RRIRWRPPRLPRPRPRPPQHPRP, the “shrunken log2 fold change” value was 0.275.

RRIRTRPPRLPRPRPRPYLSPRP: the “shrunken log2 fold change” value came out at 0.0138.

RRIRGRPPRLPRPRPRPEMEPRP: the “shrunken log2 fold change” value is -0.0341.

Regarding RRIRIRPPRLPRPRPRPPPKPRP, the “shrunken log2 fold change” value was found to be 0.46.

For the sequence RRIRRRPPRLPRPRPRPADNPRP, the “shrunken log2 fold change” value worked out at 0.111.

For RRIRARPPRLPRPRPRPYHKPRP, the “shrunken log2 fold change” value is -0.193.

With RRIRHRPPRLPRPRPRPRLTPRP, the “shrunken log2 fold change” value was -0.176.

RRIRKRPPRLPRPRPRPCCTPRP: the “shrunken log2 fold change” value is -0.0454.

With RRIRGRPPRLPRPRPRPNLSPRP, the “shrunken log2 fold change” value is 0.477.

Regarding RRIRWRPPRLPRPRPRPCRRPRP, the “shrunken log2 fold change” value is 0.0574.

Take RRIRFRPPRLPRPRPRPRCYPRP: the “shrunken log2 fold change” value is -0.473.

Regarding RRIRNRPPRLPRPRPRPMCRPRP, the “shrunken log2 fold change” value is -0.0579.

As to RRIRIRPPRLPRPRPRPGVVPRP, the “shrunken log2 fold change” value is -0.47.

On to RRIRGRPPRLPRPRPRPDVRPRP, for which the “shrunken log2 fold change” value came out at 0.0237.

For the sequence RRIRVRPPRLPRPRPRPYHQPRP, the “shrunken log2 fold change” value was 0.00427.

Consider RRIRHRPPRLPRPRPRPLQFPRP, for which the “shrunken log2 fold change” value is -0.28.

Turning to RRIRVRPPRLPRPRPRPYMQPRP, the “shrunken log2 fold change” value is -0.547.

As for RRIRGRPPRLPRPRPRPTNCPRP, the “shrunken log2 fold change” value turned out to be 0.31.

Take RRIRSRPPRLPRPRPRPTFVPRP: the “shrunken log2 fold change” value is -0.15.

Consider RRIRYRPPRLPRPRPRPPYNPRP, for which the “shrunken log2 fold change” value was -1.41.

Regarding RRIRHRPPRLPRPRPRPPWFPRP, the “shrunken log2 fold change” value is -0.27.

Take RRIRDRPPRLPRPRPRPVNQPRP: the “shrunken log2 fold change” value was found to be 0.0383.

On to RRIRARPPRLPRPRPRPNGYPRP, for which the “shrunken log2 fold change” value is 0.122.

Take RRIRTRPPRLPRPRPRPPPYPRP: the “shrunken log2 fold change” value is -0.000222.

Take RRIRDRPPRLPRPRPRPRSFPRP: the “shrunken log2 fold change” value is 0.429.

RRIRMRPPRLPRPRPRPPYQPRP: the “shrunken log2 fold change” value is 0.0406.

As for RRIRTRPPRLPRPRPRPNWQPRP, the “shrunken log2 fold change” value worked out at 0.0832.

RRIRRRPPRLPRPRPRPMSLPRP: the “shrunken log2 fold change” value is -0.0564.

Turning to RRIRWRPPRLPRPRPRPNNGPRP, the “shrunken log2 fold change” value was -0.165.

RRIRGRPPRLPRPRPRPMMDPRP: the “shrunken log2 fold change” value was found to be 0.66.

With RRIRERPPRLPRPRPRPMAPPRP, the “shrunken log2 fold change” value came to 1.59.

For RRIRDRPPRLPRPRPRPYSEPRP, the “shrunken log2 fold change” value is -0.0337.

Take RRIRHRPPRLPRPRPRPKNKPRP: the “shrunken log2 fold change” value is -0.521.

Regarding RRIRIRPPRLPRPRPRPQYVPRP, the “shrunken log2 fold change” value is -0.0421.

For the sequence RRIRIRPPRLPRPRPRPSKSPRP, the “shrunken log2 fold change” value is -0.413.

Regarding RRIRDRPPRLPRPRPRPPSYPRP, the “shrunken log2 fold change” value was -0.222.

For RRIRQRPPRLPRPRPRPKIKPRP, the “shrunken log2 fold change” value is -0.273.

For RRIRMRPPRLPRPRPRPCVLPRP, the “shrunken log2 fold change” value was -2.47e-05.

Regarding RRIRERPPRLPRPRPRPFVEPRP, the “shrunken log2 fold change” value came to 0.0315.

Turning to RRIRRRPPRLPRPRPRPYNYPRP, the “shrunken log2 fold change” value was -0.501.

As to RRIRGRPPRLPRPRPRPMTSPRP, the “shrunken log2 fold change” value was 0.445.

In the case of RRIRRRPPRLPRPRPRPHIYPRP, the “shrunken log2 fold change” value was -0.0628.

Take RRIRVRPPRLPRPRPRPPWAPRP: the “shrunken log2 fold change” value is 0.537.

On to RRIRARPPRLPRPRPRPQDIPRP, for which the “shrunken log2 fold change” value was -0.15.

In the case of RRIRKRPPRLPRPRPRPTKQPRP, the “shrunken log2 fold change” value is -0.0553.

RRIRQRPPRLPRPRPRPYTSPRP: the “shrunken log2 fold change” value was -0.0321.

As for RRIRMRPPRLPRPRPRPSKIPRP, the “shrunken log2 fold change” value was -0.0332.

For the sequence RRIRKRPPRLPRPRPRPWTTPRP, the “shrunken log2 fold change” value is -0.0228.

With RRIRNRPPRLPRPRPRPLPRPRP, the “shrunken log2 fold change” value worked out at 0.102.

Regarding RRIRQRPPRLPRPRPRPFLIPRP, the “shrunken log2 fold change” value is -1.81.

For the sequence RRIRLRPPRLPRPRPRPYRTPRP, the “shrunken log2 fold change” value is -0.197.

For RRIRSRPPRLPRPRPRPLLQPRP, the “shrunken log2 fold change” value was -0.227.

On to RRIRPRPPRLPRPRPRPNNWPRP, for which the “shrunken log2 fold change” value is -0.173.

For the sequence RRIRMRPPRLPRPRPRPDIVPRP, the “shrunken log2 fold change” value was found to be 0.0138.

RRIRARPPRLPRPRPRPLPCPRP: the “shrunken log2 fold change” value is 0.13.

Regarding RRIRFRPPRLPRPRPRPKWKPRP, the “shrunken log2 fold change” value was -0.0366.

Turning to RRIRCRPPRLPRPRPRPYNVPRP, the “shrunken log2 fold change” value was -0.434.

Turning to RRIRYRPPRLPRPRPRPWRHPRP, the “shrunken log2 fold change” value is -0.116.

For RRIRRRPPRLPRPRPRPISAPRP, the “shrunken log2 fold change” value is 0.122.

With RRIRDRPPRLPRPRPRPSWFPRP, the “shrunken log2 fold change” value was -0.192.

In the case of RRIRRRPPRLPRPRPRPWVWPRP, the “shrunken log2 fold change” value worked out at 0.00495.

In the case of RRIRVRPPRLPRPRPRPNDTPRP, the “shrunken log2 fold change” value was -0.228.

In the case of RRIRDRPPRLPRPRPRPWTEPRP, the “shrunken log2 fold change” value is 0.0384.

In the case of RRIRYRPPRLPRPRPRPAPWPRP, the “shrunken log2 fold change” value is -0.0627.

In the case of RRIRIRPPRLPRPRPRPIMTPRP, the “shrunken log2 fold change” value is -0.26.

Regarding RRIRPRPPRLPRPRPRPKFHPRP, the “shrunken log2 fold change” value was -0.143.

With RRIRWRPPRLPRPRPRPDTGPRP, the “shrunken log2 fold change” value is -0.373.

For RRIRWRPPRLPRPRPRPSARPRP, the “shrunken log2 fold change” value came out at 0.54.

In the case of RRIRPRPPRLPRPRPRPSHSPRP, the “shrunken log2 fold change” value was -0.368.

Take RRIRQRPPRLPRPRPRPVAKPRP: the “shrunken log2 fold change” value worked out at 0.2.

Take RRIRSRPPRLPRPRPRPGSAPRP: the “shrunken log2 fold change” value stood at 0.231.

For RRIRDRPPRLPRPRPRPWACPRP, the “shrunken log2 fold change” value amounted to 0.0329.

Take RRIRKRPPRLPRPRPRPVGRPRP: the “shrunken log2 fold change” value is 0.21.

Consider RRIRYRPPRLPRPRPRPEVWPRP, for which the “shrunken log2 fold change” value was 0.446.

Turning to RRIRFRPPRLPRPRPRPKCTPRP, the “shrunken log2 fold change” value was -0.243.

Consider RRIRCRPPRLPRPRPRPWEMPRP, for which the “shrunken log2 fold change” value is -0.0816.

Consider RRIRHRPPRLPRPRPRPKKMPRP, for which the “shrunken log2 fold change” value is -0.132.

For RRIRERPPRLPRPRPRPTGAPRP, the “shrunken log2 fold change” value was found to be 0.316.

Regarding RRIRNRPPRLPRPRPRPFTVPRP, the “shrunken log2 fold change” value was -0.00101.

With RRIRARPPRLPRPRPRPTYQPRP, the “shrunken log2 fold change” value was -0.163.

Regarding RRIRHRPPRLPRPRPRPQVWPRP, the “shrunken log2 fold change” value is -0.112.

Regarding RRIRERPPRLPRPRPRPDYGPRP, the “shrunken log2 fold change” value was -0.015.

Regarding RRIRIRPPRLPRPRPRPYRTPRP, the “shrunken log2 fold change” value worked out at 0.0026.

As to RRIRMRPPRLPRPRPRPHNFPRP, the “shrunken log2 fold change” value was -0.0303.

For the sequence RRIRGRPPRLPRPRPRPCVEPRP, the “shrunken log2 fold change” value came out at 0.953.

As to RRIRNRPPRLPRPRPRPRLYPRP, the “shrunken log2 fold change” value was -0.142.
